Experimental data reported in PMC3154929, “Phosphatase-Coupled Universal Kinase Assay and Kinetics for First-Order-Rate Coupling Reaction” (PLoS ONE, 2011).

Assays:
[1] = substrate: Nc1ncnc2c1ncn2[C@@H]1O[C@H](COP(=O)(O)OP(=O)(O)OP(=O)(O)O)[C@@H](O)[C@H]1O; experiment: malachite green phosphate release assay; assay type: biochemical, Mus musculus; conditions: 25 mM Tris, 150 mM NaCl, 10 mM MgCl2, 10 mM CaCl2, pH 7.5, room temperature
From the text: (§1) malachite green phosphate release assay on CD39L2 (ENTPD6)

[2] = substrate: Nc1ncnc2c1ncn2[C@@H]1O[C@H](COP(=O)(O)OP(=O)(O)O)[C@@H](O)[C@H]1O; experiment: malachite green phosphate release assay; assay type: biochemical, Mus musculus; conditions: 25 mM Tris, 150 mM NaCl, 10 mM MgCl2, 10 mM CaCl2, pH 7.5, room temperature
From the text: as §1

purified protein = substrate: Nc1ncnc2c1ncn2[C@@H]1O[C@H](COP(=O)(O)OP(=O)(O)OP(=O)(O)O)[C@@H](O)[C@H]1O; experiment: purified protein; assay type: biochemical, Homo sapiens; conditions: 20 mM glucose, 10 mM MgCl2, 10 mM CaCl2, 150 mM NaCl, 25 mM Tris pH 7.5, room temperature

B1: CD39L2 (ENTPD6) (Mus musculus) (protein)
chain: MRKIPNHGTLRMTKVAYPLGLCVGLFIYVAYIKWHRASAAQAFFTIAGAASGARWTQQAFSSPGSAARGHEVFYGIMFDAGSTGTRIHVFQFARPPGETPTLTHETFKALKPGLSAYADDVEKSAQGIQELLNVAKQHIPYDFWKATPLVLKATAGLRLLPGEKAQKLLQKVKEVFKASPFLVGDDCVSIMNGTDEGVSAWITVNFLTGSLKTPGSSSVGMLDLGGGSTQITFLPRVEGTLQASPPGHLTALQMFNRTYKLYSYSYLGLGLMSARLAILGGVEGKPAENDKELVSPCLSPRFRGEWEHAEVTYRISGQKAVGLYELCASRVSEVLRNKVHRTEEAQHVDFYAFSYYYDLAASFGLIDAEKGGSLVVGDFEIAAKYVCRTLETQPPSSPFACMDLTYISLLLHEFGFPGDKVLKLARKIDNVETSWALGAIFHYIDSLKRQKVPAL
notes: recombinant, R&D Systems
Km [1]: 1140 µM | Vmax [1]: 0.928 µmol/min/mg | kcat [1]: 0.617 s⁻¹ | kcat/Km [1]: 727 M⁻¹ s⁻¹ | Km [2]: 1050 µM | Vmax [2]: 49.1 µmol/min/mg | kcat [2]: 38.5 s⁻¹ | kcat/Km [2]: 36600 M⁻¹ s⁻¹

B2: human glucokinase (GCK) (Homo sapiens) (protein)
chain: VEQILAEFQLQEEDLKKVMRRMQKEMDRGLRLETHEEASVKMLPTYVRSTPEGSEVGDFLSLDLGGTNFRVMLVKVGEGEEGQWSVKTKHQMYSIPEDAMTGTAEMLFDYISECISDFLDKHQMKHKKLPLGFTFSFPVRHEDIDKGILLNWTKGFKASGAEGNNVVGLLRDAIKRRGDFEMDVVAMVNDTVATMISCYYEDHQCEVGMIVGTGCNACYMEEMQNVELVEGDEGRMCVNTEWGAFGDSGELDEFLLEYDRLVDESSANPGQQLYEKLIGGKYMGELVRLVLLRLVDENLLFHGEASEQLRTRGAFETRFVSQVESDTGDRKQIYNILSTLGLRPSTTDCDIVRRACESVSTRAAHMCSAGLAGVINRMRESRSEDVMRITVGVDGSVYKLHPSFKERFHASVRRLTPSCEITFIESEEGSGRGAALVSAVACKKACMLGQ
notes: V16 to Q465, N-terminal 6xHis tag, expressed in E. coli
Km (purified protein): 3550 µM
